# Laboratory results published in patent publication US20210309709A1 (AKSTON BIOSCIENCES, published 2021).
# Biological target: T1, biotinylated human complement component C1q (Sigma-Aldrich) (human, UniProt P02745 23-245; P02746 28-253; P02747 29-245)
# T1 construct: Sigma-Aldrich', a protein complex; also called complement component 1q; biotinylated-C1q
# Experiment: ELISA, fusion coated, biotinylated human C1q at 1000 ng/mL
# T1 sequence (P02745 23-245 limits assumed, chain 1 of 3): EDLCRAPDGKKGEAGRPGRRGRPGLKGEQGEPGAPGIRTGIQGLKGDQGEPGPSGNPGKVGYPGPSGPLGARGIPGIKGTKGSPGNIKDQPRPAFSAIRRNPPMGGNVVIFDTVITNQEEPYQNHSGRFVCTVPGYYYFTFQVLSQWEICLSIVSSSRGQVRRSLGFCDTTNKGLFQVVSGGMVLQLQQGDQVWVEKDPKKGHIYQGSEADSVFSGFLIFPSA
# T1 sequence (P02746 28-253 limits assumed, chain 2 of 3): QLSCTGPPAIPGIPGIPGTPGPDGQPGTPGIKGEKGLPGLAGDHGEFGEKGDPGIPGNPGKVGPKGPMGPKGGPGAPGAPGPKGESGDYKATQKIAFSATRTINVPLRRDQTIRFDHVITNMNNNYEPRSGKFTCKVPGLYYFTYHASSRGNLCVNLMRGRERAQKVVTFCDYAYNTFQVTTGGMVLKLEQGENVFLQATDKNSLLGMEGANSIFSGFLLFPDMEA
# T1 sequence (P02747 29-245 limits assumed, chain 3 of 3): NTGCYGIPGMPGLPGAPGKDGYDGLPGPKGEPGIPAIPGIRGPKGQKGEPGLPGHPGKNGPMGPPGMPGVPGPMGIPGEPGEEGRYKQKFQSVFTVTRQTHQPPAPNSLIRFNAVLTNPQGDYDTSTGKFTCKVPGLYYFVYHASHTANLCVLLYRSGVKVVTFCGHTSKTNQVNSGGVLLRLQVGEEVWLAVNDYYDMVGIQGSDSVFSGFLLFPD
row,OD450 Ratio to SEQ ID NO: 76 [ratio],Binder
1,0.309,"insulin-Fc fusion protein of SEQ ID NO: 75 (Fc fusion, HEK293, Protein A; also called hIgG2) FVNQHLCGSHLVEALELVCGERGFHYGGGGGGSGGGGGIVEQCCTSTCSLDQLENYCGGGGGQGGGGQGGGGQGGGGGECPPCPAPPVAGPSVFLFPPKPKDTLMISRTPEVTCVVVDVSHEDPEVQFNWYVDGVEVHNAKTKPREEQFNSTFRVVSVLTVVHQDWLNGKEYKCKVSNKGLPAPIEKTISKTKGQPREPQVYTLPPSREEMTKNQVSLTCLVKGFYPSDIAVEWESNGQPENNYKTTPPMLDSDGSFFLYSKLTVDKSRWQQGNVFSCSVMHEALHNHYTQKSLSLSPG"

# Biological target: T2, biotinylated recombinant human Fc(gamma)RI (R&D Systems) (human, UniProt P12314 16-288)
# T2 construct: soluble in ELISA; also called rhFc(gamma)RI; Fc(gamma) receptor I
# Experiment: ELISA, fusion coated, biotinylated rhFc(gamma)RI at 3000 ng/mL
# Procedure: (§1) The binding of insulin-Fc fusion proteins to the Fc(gamma)RI at pH 7.4 is conducted using an ELISA assay as follows using human Fc(gamma)RI (i.e., rhFc(gamma)RI). Insulin-Fc fusion proteins are diluted to 10 μg/mL in sodium bicarbonate buffer at pH 9.6 and coated on Maxisorp (Nunc) microtiter plates overnight at 4° C., after which the microplate strips are washed 5 times with PBST (PBS/0.05% Tween-20) buffer and blocked with Superblock blocking reagent (ThermoFisher). Serial dilutions of biotinylated rhFc(gamma)RI (recombinant human Fc(gamma)RI; R&D Systems) are prepared in PBST/10% Superblock buffer from 3000 ng/mL to 4.1 ng/mL and loaded at 100 μL/well onto the microplate strips coated with insulin-Fc fusion protein. The microtiter plate is incubated for 1 hour at room temperature after which time the microplate strips are washed 5 times with PBST and then loaded with 100 μL/well of streptavidin-HRP diluted 1:10000 in PBST/10% Superblock buffer. After incubating for 45 min, the microplate strips are washed again 5 times with PBST. TMB is added to reveal the bound Fc(gamma)RI proteins and is stopped with ELISA stop reagent (Boston Bioproducts). The plate is read in an ELISA plate reader at 450 nm, and the OD450 values (proportional to the binding of rhFc(gamma)RI to insulin-Fc protein) are plotted against log concentrations of rhFc(gamma)RI added to each well to generate binding curves using GraphPad Prism software. For groupings of compounds with somewhat similar curves, the OD450 at one of the higher concentrations, for instance at rhFc(gamma)RI concentrations of 3000 ng/mL, can be used to identify differences between coated insulin-Fc fusion protein compounds. […]
# Finally, select compounds were tested for their likelihood to interact with the immune system by measuring their Fc(gamma) receptor binding activity according to the procedure of Example 15.
# T2 sequence (P12314 16-288 limits assumed): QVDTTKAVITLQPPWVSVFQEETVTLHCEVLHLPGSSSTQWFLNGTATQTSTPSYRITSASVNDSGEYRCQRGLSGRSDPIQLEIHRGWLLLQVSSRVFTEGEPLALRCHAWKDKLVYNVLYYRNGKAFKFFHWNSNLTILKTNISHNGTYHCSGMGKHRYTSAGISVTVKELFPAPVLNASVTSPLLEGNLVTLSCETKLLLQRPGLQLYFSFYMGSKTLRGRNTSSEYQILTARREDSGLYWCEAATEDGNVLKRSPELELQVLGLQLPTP
Binder,OD450 nm [OD450],OD450 nm minus assay background [OD450],ratio to SEQ ID NO: 36 [ratio]
"insulin-Fc fusion protein of SEQ ID NO: 26 (Fc fusion, native N-glycosylation site cNg-NB151) FVNQHLCGSHLVEALELVCGERGFHYGGGGGGSGGGGGIVEQCCTSTCSLDQLENYCGGGGGQGGGGQGGGGQGGGGGDCPKCPAPEMLGGPSVFIFPPKPKDTLLIARTPEVTCVVVDLDPEDPEVQISWFVDGKQMQTAKTQPREEQFNGTYRVVSVLPIGHQDWLKGKQFTCKVNNKALPSPIERTISKARGQAHQPSVYVLPPSREELSKNTVSLTCLIKDFFPPDIDVEWQSNGQQEPESKYRTTPPQLDEDGSYFLYSKLSVDKSRWQRGDTFICAVMHEALHNHYTQESLSHSPG",0.368,0.311,0.84
"insulin-Fc fusion protein of SEQ ID NO: 62 (Fc fusion, also called cNg-NB151-S) FVNQHLCGSHLVEALELVCGERGFHYGGGGGGSGGGGGIVEQCCTSTCSLDQLENYCGGGGGQGGGGQGGGGQGGGGGDCPKCPAPEMLGGPSVFIFPPKPKDTLLIARTPEVTCVVVDLDPEDPEVQISWFVDGKQMQTAKTQPREEQFSGTYRVVSVLPIGHQDWLKGKQFTCKVNNKALPSPIERTISKARGQAHQPSVYVLPPSREELSKNTVSLTCLIKDFFPPDIDVEWQSNGQQEPESKYRTTPPQLDEDGSYFLYSKLSVDKSRWQRGDTFICAVMHEALHNHYTQESLSHSPG",0.175,0.118,0.32
insulin-Fc fusion protein of SEQ ID NO: 30 (Fc fusion) FVNQHLCGSHLVEALALVCGERGFHYGGGGGGSGGGGGIVEQCCTSTCSLDQLENYCGGGGGQGGGGQGGGGQGGGGGDCPKCPAPEMLGGPSVFIFPPKPKDTLLIARTPEVTCVVVDLDPEDPEVQISWFVDGKQMQTAKTQPREEQFSGTYRVVSVLPIGHQDWLKGKQFTCKVNNKALPSPIERTISKARGQAHQPSVYVLPPSREELSKNTVSLTCLIKDFFPPDIDVEWQSNGQQEPESKYRTTPPQLDEDGSYFLYSKLSVDKSRWQRGDTFICAVMHEALHNHYTQESLSHSPG,0.177,0.12,0.32
"insulin-Fc fusion protein of SEQ ID NO: 36 (Fc fusion, native N-glycosylation site cNg-NB139, HEK293, Protein A) FVNQHLCGSDLVEALALVCGERGFFYTDPTGGGPRRGIVEQCCHSICSLYQLENYCNGGGGAGGGGDCPKCPAPEMLGGPSVFIFPPKPKDTLLIARTPEVTCVVVDLDPEDPEVQISWFVDGKQMQTAKTQPREEQFNGTYRVVSVLPIGHQDWLKGKQFTCKVNNKALPSPIERTISKARGQAHQPSVYVLPPSREELSKNTVSLTCLIKDFFPPDIDVEWQSNGQQEPESKYRTTPPQLDEDGSYFLYSKLSVDKSRWQRGDTFICAVMHEALHNHYTQESLSHSPG",0.428,0.371,1

# Further lines, results first:
OD450 nm [OD450],OD450 nm minus assay background [OD450],ratio to SEQ ID NO: 36 [ratio],Binder
0.166,0.109,0.29,"insulin-Fc fusion protein of SEQ ID NO: 61 (Fc fusion, also called cNg-NB151-S, NB119-A) FVNQHLCGSHLVEALELVCGERGFHYGGGGGGSGGGGGIVEQCCTSTCSLDQLENYCGGGGGQGGGGQGGGGQGGGGGDCPKCPAPEMLGGPSVFIFPPKPKDTLLIARTPEVTCVVVALDPEDPEVQISWFVDGKQMQTAKTQPREEQFSGTYRVVSVLPIGHQDWLKGKQFTCKVNNKALPSPIERTISKARGQAHQPSVYVLPPSREELSKNTVSLTCLIKDFFPPDIDVEWQSNGQQEPESKYRTTPPQLDEDGSYFLYSKLSVDKSRWQRGDTFICAVMHEALHNHYTQESLSHSPG"
0.253,0.196,0.53,"insulin-Fc fusion protein of SEQ ID NO: 58 (Fc fusion, purified on Protein A or Protein G) FVNQHLCGSHLVEALELVCGERGFHYGGGGGGSGGGGGIVEQCCTSTCSLDQLENYCGGGGGQGGGGQGGGGQGGGGGRCTDTPPCPVPEPLGGPSVLIFPPKPKDILRITRTPEVTCVVLDLGREDPEVQISWFVDGKEVHTAKTQSREQQFNGTYRVVSVLPIEHQDWLTGKEFKCRVNHIDLPSPIERTISKARGRAHKPSVYVLPPSPKELSSSDTVSITCLIKDFYPPDIDVEWQSNGQQEPERKHRMTPPQLDEDGSYFLYSKLSVDKSRWQQGDPFTCAVMHETLQNHYTDLSLSHSPG"

# Biological target: T2, biotinylated recombinant human …
# Experiment: as above
# Remark: another data set of the same source
# Procedure: The binding of insulin-Fc fusion proteins to the Fc(gamma)RI at pH 7.4 was conducted using an ELISA assay as follows using human Fc(gamma)RI (i.e., rhFc(gamma)RI). Insulin-Fc fusion proteins were diluted to 10 μg/mL in sodium bicarbonate buffer at pH 9.6 and coated on Maxisorp (Nunc) microtiter plates overnight at 4° C., after which the microplate strips were washed 5 times with PBST (PBS/0.05% Tween-20) buffer and blocked with Superblock blocking reagent (ThermoFisher). […] The plate was read in an ELISA plate reader at 450 nm, and the OD450 values (proportional to the binding of rhFc(gamma)RI to insulin-Fc protein) were plotted against log concentrations of rhFc(gamma)RI added to each well to generate binding curves using GraphPad Prism software. […] In order to compare differences across multiple insulin-Fc fusion proteins run at different times, the human Fc(gamma)RI assay OD450 Ratio was calculated as the OD450 value of a test insulin-Fc fusion protein compound obtained at a biotinylated-Fc(gamma)RI concentration of 3000 ng/mL, divided by the OD450 value of a reference insulin-Fc fusion protein of SEQ ID NO: 76 obtained at a biotinylated-Fc(gamma)RI concentration of 3000 ng/mL.
row,OD450 Ratio to SEQ ID NO: 76 [ratio],Binder
1,0.045,"insulin-Fc fusion protein of SEQ ID NO: 75 (Fc fusion, HEK293, Protein A; also called hIgG2) FVNQHLCGSHLVEALELVCGERGFHYGGGGGGSGGGGGIVEQCCTSTCSLDQLENYCGGGGGQGGGGQGGGGQGGGGGECPPCPAPPVAGPSVFLFPPKPKDTLMISRTPEVTCVVVDVSHEDPEVQFNWYVDGVEVHNAKTKPREEQFNSTFRVVSVLTVVHQDWLNGKEYKCKVSNKGLPAPIEKTISKTKGQPREPQVYTLPPSREEMTKNQVSLTCLVKGFYPSDIAVEWESNGQPENNYKTTPPMLDSDGSFFLYSKLTVDKSRWQQGNVFSCSVMHEALHNHYTQKSLSLSPG"

# Biological target: T2, biotinylated recombinant human …
# Experiment: ELISA, fusion coated, biotinylated rhFc(gamma)RI (concentration not clear from the table head)
# Procedure: as §1
OD450 nm [OD450],OD450 nm minus assay background [OD450],ratio to SEQ ID NO: 36 [ratio],Binder
0.386,0.323,1,"insulin-Fc fusion protein of SEQ ID NO: 36 (Fc fusion, native N-glycosylation site cNg-NB139, HEK293, Protein A) FVNQHLCGSDLVEALALVCGERGFFYTDPTGGGPRRGIVEQCCHSICSLYQLENYCNGGGGAGGGGDCPKCPAPEMLGGPSVFIFPPKPKDTLLIARTPEVTCVVVDLDPEDPEVQISWFVDGKQMQTAKTQPREEQFNGTYRVVSVLPIGHQDWLKGKQFTCKVNNKALPSPIERTISKARGQAHQPSVYVLPPSREELSKNTVSLTCLIKDFFPPDIDVEWQSNGQQEPESKYRTTPPQLDEDGSYFLYSKLSVDKSRWQRGDTFICAVMHEALHNHYTQESLSHSPG"
0.204,0.141,0.44,"insulin-Fc fusion protein of SEQ ID NO: 41 (Fc fusion, also called cNg-NB139-D; cNg-D) FVNQHLCGSDLVEALALVCGERGFFYTDPTGGGPRRGIVEQCCHSICSLYQLENYCNGGGGAGGGGDCPKCPAPEMLGGPSVFIFPPKPKDTLLIARTPEVTCVVVDLDPEDPEVQISWFVDGKQMQTAKTQPREEQFDGTYRVVSVLPIGHQDWLKGKQFTCKVNNKALPSPIERTISKARGQAHQPSVYVLPPSREELSKNTVSLTCLIKDFFPPDIDVEWQSNGQQEPESKYRTTPPQLDEDGSYFLYSKLSVDKSRWQRGDTFICAVMHEALHNHYTQESLSHSPG"
0.14,0.077,0.24,"insulin-Fc fusion protein of SEQ ID NO: 40 (Fc fusion, non-glycosylated canine IgGB Fc; also called cNg-NB139-S; cNg-S) FVNQHLCGSDLVEALALVCGERGFFYTDPTGGGPRRGIVEQCCHSICSLYQLENYCNGGGGAGGGGDCPKCPAPEMLGGPSVFIFPPKPKDTLLIARTPEVTCVVVDLDPEDPEVQISWFVDGKQMQTAKTQPREEQFSGTYRVVSVLPIGHQDWLKGKQFTCKVNNKALPSPIERTISKARGQAHQPSVYVLPPSREELSKNTVSLTCLIKDFFPPDIDVEWQSNGQQEPESKYRTTPPQLDEDGSYFLYSKLSVDKSRWQRGDTFICAVMHEALHNHYTQESLSHSPG"
0.126,0.063,0.2,"insulin-Fc fusion protein of SEQ ID NO: 42 (Fc fusion, also called cNg-NB139-K; cNg-K) FVNQHLCGSDLVEALALVCGERGFFYTDPTGGGPRRGIVEQCCHSICSLYQLENYCNGGGGAGGGGDCPKCPAPEMLGGPSVFIFPPKPKDTLLIARTPEVTCVVVDLDPEDPEVQISWFVDGKQMQTAKTQPREEQFKGTYRVVSVLPIGHQDWLKGKQFTCKVNNKALPSPIERTISKARGQAHQPSVYVLPPSREELSKNTVSLTCLIKDFFPPDIDVEWQSNGQQEPESKYRTTPPQLDEDGSYFLYSKLSVDKSRWQRGDTFICAVMHEALHNHYTQESLSHSPG"
